The values below come from patent publication US20190300612A1 (ELANCO US, published 2019).

Test [1] concerns the target T1, cPDGFRA extracellular domain (ECD)-Fc fusion protein (dog).
T1 construct: extracellular domain; also called cPDGFRA-Fc; cPDGFRA-ECD-Xa-Fc
The experiment in a line: comparison of the KD values of Table 1.

Test [2] deals with T1, cPDGFRA extracellular domain (ECD)-Fc …. Kind of test: kinetic binding to PDGFRA-Fc, antibody 30 nM; method not named for Table 1.
For test [3], the target named is T2, human PDGFRA-Fc (human, UniProt P16234 24-524, limits assumed).
T2 construct: also called PDGFRA-Fc (Human); not shown: Fc
The test is described as above.

For test [4], the target named is human PDGFRA (human, UniProt P16234 24-524, limits assumed). The experiment in a line: binding ELISA on coated human PDGFRA; parental EC50 divided by variant EC50; pool evaluation. For orientation: ELISA stands for enzyme-linked immunosorbent assay.
For test [5], the target named is T1, cPDGFRA extracellular domain (ECD)-Fc …. The experiment in a line: titration binding ELISA on coated cPDGFRA-Fc; parental EC50 divided by variant EC50; pool evaluation.
For test [6], the target named is T3, canine platelet derived growth factor receptor alpha (cPDGFRA) (dog, UniProt A0A8I3NAN8 49-553, biotinylated (sites not given) in the blocking ELISA).
T3 construct: The construct is not described; also called biotinylated-cPDGFRA
Kind of test: blocking ELISA: antibody with biotinylated cPDGFRA on coated canine PDGFAA; parental IC50 divided by variant IC50; pool evaluation.

For test [7], the target named is T1, cPDGFRA extracellular domain (ECD)-Fc …. The experiment in a line: binding ELISA on coated cPDGFRA-Fc; unit from paragraph 44.
Test [8] shares this target. The experiment in a line: SPR, BIAcore T200, cPDGFRA-ECD-Xa-Fc immobilized, antibody injected, 25 C. The method, then:
The binding kinetics of selected K9-6N6.1 variants to cPDGFRA were measured using a BIAcore T200 instrument (BIAcore, Inc., Piscataway, N.J.). Briefly, a cPDGFRA extracellular domain (ECD)-Fc fusion protein was immobilized on a sensor chip and antibody was injected at various concentrations. Sensograms were obtained at each concentration and evaluated using the BIA Evaluation 3.0 program to determine rate constants. The affinity constant (KD) was calculated from the ratio of rate constants Koff/Kon. The evaluation was performed at 25° C.
On the technique in general: In SPR one partner is held on a chip, and binding of the other changes the refractive index at the surface.

For test [9], the target named is T3, canine platelet derived growth factor …. The experiment in a line: blocking ELISA: antibody with biotinylated cPDGFRA on coated canine PDGFAA; unit from paragraph 44.

T2 sequence (P16234 24-524 limits assumed): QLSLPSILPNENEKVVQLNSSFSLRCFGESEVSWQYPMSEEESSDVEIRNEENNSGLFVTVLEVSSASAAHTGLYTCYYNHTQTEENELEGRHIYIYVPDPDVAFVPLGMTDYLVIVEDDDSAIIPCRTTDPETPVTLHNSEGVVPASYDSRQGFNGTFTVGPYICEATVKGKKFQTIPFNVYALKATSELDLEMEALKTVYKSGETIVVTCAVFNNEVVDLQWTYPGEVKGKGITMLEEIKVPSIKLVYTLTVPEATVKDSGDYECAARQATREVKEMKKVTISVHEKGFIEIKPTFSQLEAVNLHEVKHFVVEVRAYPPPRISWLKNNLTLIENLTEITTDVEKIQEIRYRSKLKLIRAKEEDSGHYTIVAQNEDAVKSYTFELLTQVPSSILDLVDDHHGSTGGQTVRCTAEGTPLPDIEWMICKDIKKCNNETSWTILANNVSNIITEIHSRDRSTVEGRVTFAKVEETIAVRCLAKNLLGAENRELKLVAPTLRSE
human PDGFRA, sequence (P16234 24-524 limits assumed): as above

B1: Olaratumab (antibody, human IgG1, kappa)
heavy: not shown
light: not shown
notes: Fully human IgG1 monoclonal antibody; also called IMC-3G3; human Olaratumab
As a reminder, the Kd is a measure of binding affinity in units of concentration. Read a low Kd as tighter binding. The term koff denotes the rate constant with which the complex falls apart. Low readings indicate slow dissociation, high ones fast dissociation. The kon is the second-order rate constant of association. A low value points to slow association. In the case of B1, the “fold lower affinity than Olaratumab binding to human PDGFRA” value in [1] was roughly 10 fold. Also, in test [2], binding was characterised by a dissociation constant (Kd) of 3.44 nM, the off-rate (koff) was 0.00294 s⁻¹ and the on-rate constant (kon) amounted to 856000 M⁻¹ s⁻¹. In test [3], this molecule came in with a dissociation constant (Kd) of 0.307 nM, a koff of 0.000248 s⁻¹ and an on-rate constant (kon) of 808000 M⁻¹ s⁻¹.

B2: K9-6N6.1 variant LC-S28A (clone 2A2) (antibody, V domains shown)
VH: QLQLQESGPGLVKPSETLSLTCTVSGGSINSSSYYWGWLRQSPGKGLEWIGSFFYTGSTYYNPSLRSRLTISVDTSKNQFSLMLSSVTAADTAVYYCARQSTYYYGSGNYYGWFDRWDQGTLVTVSS
VL: EIVLTQSPATLSLSPGERATLSCRASQAVSSYLAWYQQKPGQAPRLLIYDASNRATGIPARFSGSGSGTDFTLTISSLEPEDFAVYYCQQRSNWPPAFGQGTKVEIKR
Take B2: in test [4], the “Human PDGFRA Binding EC50 improvement (fold) over parental K9-6N6.1” value was determined as 1.83 fold. Further, the “cPDGFRA Binding EC50 improvement (fold) over parental K9-6N6.1” value in test [5] was found to be 1.43 fold. In addition, the “cPDGFRA Blocking IC50 improvement (fold) over parental K9-6N6.1” value in test [6] was determined as 13.4 fold.

B3: K9-6N6.1 (antibody)
heavy: QLQLQESGPGLVKPSETLSLTCTVSGGSINSSSYYWGWLRQSPGKGLEWIGSFFYTGSTYYNPSLRSRLTISVDTSKNQFSLMLSSVTAADTAVYYCARQSTYYYGSGNYYGWFDRWDQGTLVTVSSASTTAPSVFPLAPSCGSTSGSTVALACLVSGYFPEPVTVSWNSGSLTSGVHTFPSVLQSSGLYSLSSMVTVPSSRWPSETFTCNVAHPASKTKVDKPVPKRENGRVPRPPDCPKCPAPEMLGGPSVFIFPPKPKDTLLIARTPEVTCVVVDLDPEDPEVQISWFVDGKQMQTAKTQPREEQFNGTYRVVSVLPIGHQDWLKGKQFTCKVNNKALPSPIERTISKARGQAHQPSVYVLPPSREELSKNTVSLTCLIKDFFPPDIDVEWQSNGQQEPESKYRTTPPQLDEDGSYFLYSKLSVDKSRWQRGDTFICAVMHEALHNHYTQESLSHSPGK
light: EIVLTQSPATLSLSPGERATLSCRASQSVSSYLAWYQQKPGQAPRLLIYDASNRATGIPARFSGSGSGTDFTLTISSLEPEDFAVYYCQQRSNWPPAFGQGTKVEIKRNDAQPAVYLFQPSPDQLHTGSASVVCLLNSFYPKDINVKWKVDGVIQDTGIQESVTEQDKDSTYSLSSTLTMSSTEYLSHELYSCEITHKSLPSTLIKSFQRSECQRVD
notes: Olaratumab HCVR on canine IgB heavy constant region, Olaratumab LCVR on canine kappa constant region; also called parental K9-6N6.1; parent K9-6N6.1
In general, EC50 refers to the concentration at which the effect is half-maximal. Read a high EC50 as a need for much substance. For orientation: IC50 means the concentration needed to halve the response being measured. A higher IC50 goes with lower potency. With B3, the “fold lower affinity than Olaratumab binding to human PDGFRA” value in test [1] is roughly 10 fold. In test [7], this molecule had a 50% effective concentration (EC50) of 0.272 nM. In addition, in test [8], the “Improvement (fold) of KD over parent K9-6N6.1” value was determined as 1 fold, the dissociation constant Kd was 4.87 nM, the koff was 0.00247 s⁻¹ and the kon was 508000 M⁻¹ s⁻¹. In [2], this molecule yielded a dissociation constant (Kd) of 1.92 nM, a dissociation rate constant (koff) of 0.00161 s⁻¹ and an association rate constant (kon) of 840000 M⁻¹ s⁻¹. The molecule further gave a half-maximal inhibitory concentration (IC50) in test [9] of 31.5 nM.
